From PMC7043357 come the findings set out here.

The target in this data set is T1, Rop (UniProt P03051 1-63).
T1 sequence: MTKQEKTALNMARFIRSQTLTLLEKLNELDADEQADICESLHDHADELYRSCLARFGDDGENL
The data set is described as follows: EMSA. On the technique in general: Mobility shift assays separate free from complexed probe on a gel.

B1: RNA1-U6/RNA2-WT kissing dimer (structured_RNA)
RNA 1: GGCAGCUUUUUUUUGGUAGUUUUUUGCUGCC
RNA 2: GCACCGCUACCAACGGUGC
Consider B1, for which the binding result is given as “binds”.
